The series addresses T1, M.SsoII (C5-DNA methyltransferase SsoII) (Shigella sonnei, UniProt P34879 1-379).
T1 sequence: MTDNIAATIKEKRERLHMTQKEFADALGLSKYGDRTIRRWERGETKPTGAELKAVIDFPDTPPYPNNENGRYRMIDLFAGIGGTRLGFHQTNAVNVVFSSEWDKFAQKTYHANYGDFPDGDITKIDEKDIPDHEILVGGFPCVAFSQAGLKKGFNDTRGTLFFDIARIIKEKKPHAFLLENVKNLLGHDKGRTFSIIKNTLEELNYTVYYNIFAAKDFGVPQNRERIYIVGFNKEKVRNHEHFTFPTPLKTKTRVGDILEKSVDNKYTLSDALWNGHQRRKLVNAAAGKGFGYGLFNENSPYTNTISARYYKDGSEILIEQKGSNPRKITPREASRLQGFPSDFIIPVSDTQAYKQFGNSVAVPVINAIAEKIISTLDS
As to the kind of experiment: EMSA (native PAGE, EtBr and Coomassie stain); AdoHcy; M.SsoII:AdoHcy:DNA 1:2:1; Complex formation: 18 mM Tris-HCl, 136 mM NaCl, 3.5 mM beta-mercaptoethanol, 10% (w/v) glycerol, pH 8.0, with AdoHcy; temperature not stated; 7% native PAGE. The following applies: protein: recombinant; (HisTrap purified; tag not described); blunt.

Experimental findings from article PMC3978073, “Flexibility of the Linker between the Domains of DNA Methyltransferase SsoII Revealed by Small-Angle X-Ray Scattering: Implications for Transcription Regulation in SsoII Restriction–Modification Syste” are described below.

B1: 15met (dsDNA)
DNA 1: AGAGCCAGGAACCGA
DNA 2: TCGGTTCCTGGCTCT
For B1, the binding result was “binds”.
